Assay results published in paper doi:10.1101/749176, “ZapA tetramerization is required for midcell localization and ZapB interaction in Escherichia coli” (bioRxiv, 2019).

T1: mKO-PBP1a (Escherichia coli, UniProt P02918 1-850)
T1 construct: PBP1a, inner membrane (IM) protein, Escherichia coli; Negative control partner of the FRET assay; source: E. coli TB28 ΔzapA, expressed from plasmid, in living cells
T1 sequence (looked up): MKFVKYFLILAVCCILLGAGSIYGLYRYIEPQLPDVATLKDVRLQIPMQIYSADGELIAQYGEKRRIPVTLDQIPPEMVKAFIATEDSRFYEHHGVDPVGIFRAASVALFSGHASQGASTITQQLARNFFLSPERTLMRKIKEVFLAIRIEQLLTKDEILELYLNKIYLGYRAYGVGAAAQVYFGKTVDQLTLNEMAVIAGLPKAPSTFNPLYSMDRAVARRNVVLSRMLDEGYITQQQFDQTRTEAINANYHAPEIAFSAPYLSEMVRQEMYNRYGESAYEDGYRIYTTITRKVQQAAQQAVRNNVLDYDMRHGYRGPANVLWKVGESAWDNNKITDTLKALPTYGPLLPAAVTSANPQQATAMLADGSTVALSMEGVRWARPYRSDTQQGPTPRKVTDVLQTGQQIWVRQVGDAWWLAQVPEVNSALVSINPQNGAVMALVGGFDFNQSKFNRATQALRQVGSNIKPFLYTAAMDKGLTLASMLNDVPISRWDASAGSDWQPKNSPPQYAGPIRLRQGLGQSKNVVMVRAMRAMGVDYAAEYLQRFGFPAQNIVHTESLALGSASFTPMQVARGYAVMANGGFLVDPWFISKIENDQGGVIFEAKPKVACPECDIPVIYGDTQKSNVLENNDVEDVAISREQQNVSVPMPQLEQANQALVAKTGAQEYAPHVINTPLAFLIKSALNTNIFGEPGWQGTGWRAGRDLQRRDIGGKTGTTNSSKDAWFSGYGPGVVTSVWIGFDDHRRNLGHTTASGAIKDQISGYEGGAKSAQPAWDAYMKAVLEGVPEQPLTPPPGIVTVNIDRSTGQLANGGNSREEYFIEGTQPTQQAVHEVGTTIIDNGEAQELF

T2: mKO-FtsZ (Escherichia coli, UniProt P0A9A6 1-383)
T2 construct: FtsZ, Escherichia coli; also called Filamenting temperature sensitive Z; source: E. coli TB28 ΔzapA or WT strain, expressed from plasmid, in living cells
T2 sequence (looked up): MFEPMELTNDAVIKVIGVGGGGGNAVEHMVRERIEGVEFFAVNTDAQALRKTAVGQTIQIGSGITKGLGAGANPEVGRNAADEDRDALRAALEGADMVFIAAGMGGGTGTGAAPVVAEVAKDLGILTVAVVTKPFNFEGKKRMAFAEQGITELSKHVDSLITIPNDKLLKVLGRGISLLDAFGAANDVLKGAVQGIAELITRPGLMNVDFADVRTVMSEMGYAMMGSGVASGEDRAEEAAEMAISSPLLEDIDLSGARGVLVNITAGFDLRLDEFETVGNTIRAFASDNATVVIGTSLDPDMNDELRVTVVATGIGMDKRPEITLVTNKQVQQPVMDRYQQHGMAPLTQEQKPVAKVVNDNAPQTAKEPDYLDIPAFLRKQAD


Tests used:
mKO-PBP1a = target: T1, mKO-PBP1a; test: FRET or BRET; in vivo FRET in E. coli TB28 ΔzapA cells, mKO donor and mCh acceptor fusions expressed from plasmids; energy transfer efficiency (EfA) from unmixed emission spectra; details: partners not purified
mKO-FtsZ = target: T2, mKO-FtsZ; test: as above; details: partners not purified

Row | energy transfer efficiency (EfA) (mKO-PBP1a) [%] | energy transfer efficiency (EfA) (mKO-FtsZ) [%] | Binder
1 | < 1.7 |  | mCh-PBP1b (natural protein, Escherichia coli, UniProt P02919 1-844, looked up, PBP1b, Escherichia coli; Negative control of the FRET assay; source: E. coli TB28 ΔzapA, expressed from plasmid, in living cells) MAGNDREPIGRKGKPTRPVKQKVSRRRYEDDDDYDDYDDYEDEEPMPRKGKGKGKGRKPRGKRGWLWLLLKLAIVFAVLIAIYGVYLDQKIRSRIDGKVWQLPAAVYGRMVNLEPDMTISKNEMVKLLEATQYRQVSKMTRPGEFTVQANSIEMIRRPFDFPDSKEGQVRARLTFDGDHLATIVNMENNRQFGFFRLDPRLITMISSPNGEQRLFVPRSGFPDLLVDTLLATEDRHFYEHDGISLYSIGRAVLANLTAGRTVQGASTLTQQLVKNLFLSSERSYWRKANEAYMALIMDARYSKDRILELYMNEVYLGQSGDNEIRGFPLASLYYFGRPVEELSLDQQALLVGMVKGASIYNPWRNPKLALERRNLVLRLLQQQQIIDQELYDMLSARPLGVQPRGGVISPQPAFMQLVRQELQAKLGDKVKDLSGVKIFTTFDSVAQDAAEKAAVEGIPALKKQRKLSDLETAIVVVDRFSGEVRAMVGGSEPQFAGYNRAMQARRSIGSLAKPATYLTALSQPKIYRLNTWIADAPIALRQPNGQVWSPQNDDRRYSESGRVMLVDALTRSMNVPTVNLGMALGLPAVTETWIKLGVPKDQLHPVPAMLLGALNLTPIEVAQAFQTIASGGNRAPLSALRSVIAEDGKVLYQSFPQAERAVPAQAAYLTLWTMQQVVQRGTGRQLGAKYPNLHLAGKTGTTNNNVDTWFAGIDGSTVTITWVGRDNNQPTKLYGASGAMSIYQRYLANQTPTPLNLVPPEDIADMGVDYDGNFVCSGGMRILPVWTSDPQSLCQQSEMQQQPSGNPFDQSSQPQQQPQQQPAQQEQKDSDGVAGWIKDMFGSN
2 | < 1.7 | 4 | mCh-ZapA (wild type ZapA fused to mCh) (natural protein, Escherichia coli, UniProt P0ADS2 1-109, looked up, ZapA (Z associated protein A), Escherichia coli; zapA in plasmid pSAV077; also called mCh-ZapA^WT; ZapA^WT; source: E. coli TB28 ΔzapA or WT strain, expressed from plasmid, in living cells) MSAQPVDIQIFGRSLRVNCPPDQRDALNQAADDLNQRLQDLKERTRVTNTEQLVFIAALNISYELAQEKAKTRDYAASMEQRIRMLQQTIEQALLEQGRITEKTNQNFE
3 | < 1.7 |  | mCh-ZapA^I83E (dimeric ZapA mutant fused to mCh) (natural protein, Escherichia coli, UniProt P0ADS2 1-109, looked up, ZapA (Z associated protein A), Escherichia coli, with I83E; zapA of pSAV077 exchanged for zapA^I83E from pRP071; source: E. coli TB28 ΔzapA or WT strain, expressed from plasmid pNM137, in living cells) MSAQPVDIQIFGRSLRVNCPPDQRDALNQAADDLNQRLQDLKERTRVTNTEQLVFIAALNISYELAQEKAKTRDYAASMEQRERMLQQTIEQALLEQGRITEKTNQNFE
